Experimental data taken from publication PMC10786891, “Massively parallel profiling of RNA-targeting CRISPR-Cas13d”.

Molecular target: T1, EsCas13d, nuclease-dead (Eubacterium siraeum, UniProt B0MS50, R295A;H300A;R849A;H854A)
T1 sequence: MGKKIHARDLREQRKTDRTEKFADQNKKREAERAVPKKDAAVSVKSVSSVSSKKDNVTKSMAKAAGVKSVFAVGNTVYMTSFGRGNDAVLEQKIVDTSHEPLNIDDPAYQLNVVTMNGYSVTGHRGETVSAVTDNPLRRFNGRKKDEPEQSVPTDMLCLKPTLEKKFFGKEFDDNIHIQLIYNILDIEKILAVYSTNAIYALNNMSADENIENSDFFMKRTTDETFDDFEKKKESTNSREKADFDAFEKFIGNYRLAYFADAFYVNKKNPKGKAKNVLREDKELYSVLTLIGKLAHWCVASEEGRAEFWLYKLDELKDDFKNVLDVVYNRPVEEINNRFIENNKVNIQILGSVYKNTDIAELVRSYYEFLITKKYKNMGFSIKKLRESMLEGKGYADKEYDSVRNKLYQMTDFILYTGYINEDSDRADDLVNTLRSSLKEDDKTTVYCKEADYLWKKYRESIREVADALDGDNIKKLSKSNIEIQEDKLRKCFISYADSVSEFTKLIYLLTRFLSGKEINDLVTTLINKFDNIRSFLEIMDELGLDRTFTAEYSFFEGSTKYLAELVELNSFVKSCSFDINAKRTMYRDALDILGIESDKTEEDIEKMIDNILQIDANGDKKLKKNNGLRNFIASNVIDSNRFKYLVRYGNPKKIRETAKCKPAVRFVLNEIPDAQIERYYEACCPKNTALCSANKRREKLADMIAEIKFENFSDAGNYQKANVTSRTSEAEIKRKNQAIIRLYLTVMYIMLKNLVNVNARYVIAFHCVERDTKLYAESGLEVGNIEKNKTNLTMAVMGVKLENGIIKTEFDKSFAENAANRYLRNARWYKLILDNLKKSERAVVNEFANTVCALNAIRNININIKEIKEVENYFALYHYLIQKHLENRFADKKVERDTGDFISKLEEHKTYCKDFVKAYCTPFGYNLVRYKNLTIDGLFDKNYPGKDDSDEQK
Experiment: crRNA (strand 1, pre-loaded); Mg2+; 40 mM Tris-HCl pH 7.5, 150 mM NaCl, 6 mM MgCl2, 1 mM DTT, 0.1% Tween-20, 0.2 mg/ml BSA; 25 C; 10 min per concentration, then washed
Conditions: tags: His6-TwinStrep-SUMO cleaved; N-terminal SNAP kept (SNAP-Surface 488); label: 3' end held by stalled T7 RNA polymerase

Binder	Kd [nM]
target 2 MT 5'PFS CGC 3'PFS CAA (mixed) RNA 1: CACCCGUGCAAAAUUGCAGGGGUCUAAAACCUUCUCCAAAUUGUUUCAUCCU RNA 2: GGGAAUGGAUCCACAUCUACGAAUUCCGCAGGAUGAAACAAUUUGGAGAAGCAAAGAUCGGAAGAGCACACGU	7.4 ± 2.5
target 2 MT 5'PFS GAU 3'PFS CAG (mixed) RNA 1: CACCCGUGCAAAAUUGCAGGGGUCUAAAACCUUCUCCAAAUUGUUUCAUCCU RNA 2: GGGAAUGGAUCCACAUCUACGAAUUCGAUAGGAUGAAACAAUUUGGAGAAGCAGAGAUCGGAAGAGCACACGU	8.7 ± 0.6
target 2 MT 5'PFS GAU 3'PFS CAC (mixed) RNA 1: CACCCGUGCAAAAUUGCAGGGGUCUAAAACCUUCUCCAAAUUGUUUCAUCCU RNA 2: GGGAAUGGAUCCACAUCUACGAAUUCGAUAGGAUGAAACAAUUUGGAGAAGCACAGAUCGGAAGAGCACACGU	11.3 ± 2.4
target 2 MT 5'PFS CGC 3'PFS CAU (mixed) RNA 1: CACCCGUGCAAAAUUGCAGGGGUCUAAAACCUUCUCCAAAUUGUUUCAUCCU RNA 2: GGGAAUGGAUCCACAUCUACGAAUUCCGCAGGAUGAAACAAUUUGGAGAAGCAUAGAUCGGAAGAGCACACGU	4.5 ± 0.7
target 2 MT 5'PFS CUA 3'PFS CCA (mixed) RNA 1: CACCCGUGCAAAAUUGCAGGGGUCUAAAACCUUCUCCAAAUUGUUUCAUCCU RNA 2: GGGAAUGGAUCCACAUCUACGAAUUCCUAAGGAUGAAACAAUUUGGAGAAGCCAAGAUCGGAAGAGCACACGU	2.9 ± 1
target 2 MT 5'PFS GAU 3'PFS CAU (mixed) RNA 1: CACCCGUGCAAAAUUGCAGGGGUCUAAAACCUUCUCCAAAUUGUUUCAUCCU RNA 2: GGGAAUGGAUCCACAUCUACGAAUUCGAUAGGAUGAAACAAUUUGGAGAAGCAUAGAUCGGAAGAGCACACGU	9 ± 1.4
target 2 MT 5'PFS CCU 3'PFS UCU (mixed) RNA 1: CACCCGUGCAAAAUUGCAGGGGUCUAAAACCUUCUCCAAAUUGUUUCAUCCU RNA 2: GGGAAUGGAUCCACAUCUACGAAUUCCCUAGGAUGAAACAAUUUGGAGAAGUCUAGAUCGGAAGAGCACACGU	2.71 ± 0.32
target 2 MT 5'PFS AAC 3'PFS AUC (mixed) RNA 1: CACCCGUGCAAAAUUGCAGGGGUCUAAAACCUUCUCCAAAUUGUUUCAUCCU RNA 2: GGGAAUGGAUCCACAUCUACGAAUUCAACAGGAUGAAACAAUUUGGAGAAGAUCAGAUCGGAAGAGCACACGU	3.8 ± 0.9
target 2 MT 5'PFS CAG 3'PFS CUC (mixed) RNA 1: CACCCGUGCAAAAUUGCAGGGGUCUAAAACCUUCUCCAAAUUGUUUCAUCCU RNA 2: GGGAAUGGAUCCACAUCUACGAAUUCCAGAGGAUGAAACAAUUUGGAGAAGCUCAGAUCGGAAGAGCACACGU	6.5 ± 1.3
target 2 MT 5'PFS UCG 3'PFS AGA (mixed) RNA 1: CACCCGUGCAAAAUUGCAGGGGUCUAAAACCUUCUCCAAAUUGUUUCAUCCU RNA 2: GGGAAUGGAUCCACAUCUACGAAUUCUCGAGGAUGAAACAAUUUGGAGAAGAGAAGAUCGGAAGAGCACACGU	17.9 ± 2.3
target 2 MT 5'PFS GGU 3'PFS AUC (mixed) RNA 1: CACCCGUGCAAAAUUGCAGGGGUCUAAAACCUUCUCCAAAUUGUUUCAUCCU RNA 2: GGGAAUGGAUCCACAUCUACGAAUUCGGUAGGAUGAAACAAUUUGGAGAAGAUCAGAUCGGAAGAGCACACGU	20 ± 3
target 2 MT 5'PFS GGU 3'PFS UCG (mixed) RNA 1: CACCCGUGCAAAAUUGCAGGGGUCUAAAACCUUCUCCAAAUUGUUUCAUCCU RNA 2: GGGAAUGGAUCCACAUCUACGAAUUCGGUAGGAUGAAACAAUUUGGAGAAGUCGAGAUCGGAAGAGCACACGU	29 ± 4
target 2 MT 5'PFS AAC 3'PFS AUA (mixed) RNA 1: CACCCGUGCAAAAUUGCAGGGGUCUAAAACCUUCUCCAAAUUGUUUCAUCCU RNA 2: GGGAAUGGAUCCACAUCUACGAAUUCAACAGGAUGAAACAAUUUGGAGAAGAUAAGAUCGGAAGAGCACACGU	6.1 ± 1.4
target 2 MT 5'PFS GAU 3'PFS CAA (mixed) RNA 1: CACCCGUGCAAAAUUGCAGGGGUCUAAAACCUUCUCCAAAUUGUUUCAUCCU RNA 2: GGGAAUGGAUCCACAUCUACGAAUUCGAUAGGAUGAAACAAUUUGGAGAAGCAAAGAUCGGAAGAGCACACGU	14 ± 5
target 2 MT 5'PFS GGU 3'PFS UCC (mixed) RNA 1: CACCCGUGCAAAAUUGCAGGGGUCUAAAACCUUCUCCAAAUUGUUUCAUCCU RNA 2: GGGAAUGGAUCCACAUCUACGAAUUCGGUAGGAUGAAACAAUUUGGAGAAGUCCAGAUCGGAAGAGCACACGU	76 ± 19
target 2 MT 5'PFS GGU 3'PFS AUG (mixed) RNA 1: CACCCGUGCAAAAUUGCAGGGGUCUAAAACCUUCUCCAAAUUGUUUCAUCCU RNA 2: GGGAAUGGAUCCACAUCUACGAAUUCGGUAGGAUGAAACAAUUUGGAGAAGAUGAGAUCGGAAGAGCACACGU	16.1 ± 1.6
target 2 MT 5'PFS CAG 3'PFS CUG (mixed) RNA 1: CACCCGUGCAAAAUUGCAGGGGUCUAAAACCUUCUCCAAAUUGUUUCAUCCU RNA 2: GGGAAUGGAUCCACAUCUACGAAUUCCAGAGGAUGAAACAAUUUGGAGAAGCUGAGAUCGGAAGAGCACACGU	7.2 ± 1.3
target 2 MT 5'PFS AAC 3'PFS AUU (mixed) RNA 1: CACCCGUGCAAAAUUGCAGGGGUCUAAAACCUUCUCCAAAUUGUUUCAUCCU RNA 2: GGGAAUGGAUCCACAUCUACGAAUUCAACAGGAUGAAACAAUUUGGAGAAGAUUAGAUCGGAAGAGCACACGU	6.1 ± 1.8
target 2 MT 5'PFS GGU 3'PFS AUA (mixed) RNA 1: CACCCGUGCAAAAUUGCAGGGGUCUAAAACCUUCUCCAAAUUGUUUCAUCCU RNA 2: GGGAAUGGAUCCACAUCUACGAAUUCGGUAGGAUGAAACAAUUUGGAGAAGAUAAGAUCGGAAGAGCACACGU	14.8 ± 2.7
target 2 MT 5'PFS UAC 3'PFS CCG (mixed) RNA 1: CACCCGUGCAAAAUUGCAGGGGUCUAAAACCUUCUCCAAAUUGUUUCAUCCU RNA 2: GGGAAUGGAUCCACAUCUACGAAUUCUACAGGAUGAAACAAUUUGGAGAAGCCGAGAUCGGAAGAGCACACGU	6.1 ± 1.4
target 2 MT 5'PFS GGU 3'PFS AUU (mixed) RNA 1: CACCCGUGCAAAAUUGCAGGGGUCUAAAACCUUCUCCAAAUUGUUUCAUCCU RNA 2: GGGAAUGGAUCCACAUCUACGAAUUCGGUAGGAUGAAACAAUUUGGAGAAGAUUAGAUCGGAAGAGCACACGU	14.8 ± 1.6
target 2 MT 5'PFS GAU 3'PFS ACU (mixed) RNA 1: CACCCGUGCAAAAUUGCAGGGGUCUAAAACCUUCUCCAAAUUGUUUCAUCCU RNA 2: GGGAAUGGAUCCACAUCUACGAAUUCGAUAGGAUGAAACAAUUUGGAGAAGACUAGAUCGGAAGAGCACACGU	20.1 ± 3.2
target 2 MT 5'PFS UAC 3'PFS CCA (mixed) RNA 1: CACCCGUGCAAAAUUGCAGGGGUCUAAAACCUUCUCCAAAUUGUUUCAUCCU RNA 2: GGGAAUGGAUCCACAUCUACGAAUUCUACAGGAUGAAACAAUUUGGAGAAGCCAAGAUCGGAAGAGCACACGU	17 ± 4
target 2 MT 5'PFS UAC 3'PFS CCC (mixed) RNA 1: CACCCGUGCAAAAUUGCAGGGGUCUAAAACCUUCUCCAAAUUGUUUCAUCCU RNA 2: GGGAAUGGAUCCACAUCUACGAAUUCUACAGGAUGAAACAAUUUGGAGAAGCCCAGAUCGGAAGAGCACACGU	~19
target 2 MT 5'PFS AAC 3'PFS UUG (mixed) RNA 1: CACCCGUGCAAAAUUGCAGGGGUCUAAAACCUUCUCCAAAUUGUUUCAUCCU RNA 2: GGGAAUGGAUCCACAUCUACGAAUUCAACAGGAUGAAACAAUUUGGAGAAGUUGAGAUCGGAAGAGCACACGU	8.5 ± 1.3
target 1 A18U,C22A (mixed) RNA 1: CACCCGUGCAAAAAUGCAGGGGUCUAAAACUGAGCGGAUAACCUCUCUAUGG RNA 2: GGGAAUGGAUCCACAUCUACGAAUUCGUAACAUUGAGAGGUUAUCCGCUCACCGAGAUCGGAAGAGCACACGU	58 ± 6
target 1 A16C,C21A (mixed) RNA 1: CACCCGUGCAAAAAUGCAGGGGUCUAAAACUGAGCGGAUAACCUCUCUAUGG RNA 2: GGGAAUGGAUCCACAUCUACGAAUUCGUACAAUAGCGAGGUUAUCCGCUCACCGAGAUCGGAAGAGCACACGU	66 ± 11
target 1 A1C,G13A (mixed) RNA 1: CACCCGUGCAAAAAUGCAGGGGUCUAAAACUGAGCGGAUAACCUCUCUAUGG RNA 2: GGGAAUGGAUCCACAUCUACGAAUUCGUACCAUAGAGAAGUUAUCCGCUCCCCGAGAUCGGAAGAGCACACGU	14.8 ± 2.5
